Patent US20240100176A1 (Eli Lilly, published 2024)

What was measured:
[1] = target: T1, hexahistidine tagged human IL-4Rα ECD K22D (human, UniProt P24394 26-232); test: capture ELISA: Ab1 on anti-human IgG Fc, His-tagged receptor at 0.04 µg/mL, anti-His HRP
T1 construct: not shown: hexahistidine tag
Description: (§1) Example 2d. […] Briefly, thirty surface amino acid residue substitutions were introduced individually into hexahistidine tagged human IL-4Rα extra cellular domain (ECD) as follows: K2D, E6R, K22D, P26R, T31R, F41A, L42G, L43G, E45R, E52R, G56R, D66R, A71R, Q82G, K87D, E94R, H107A, D108R, P124R, D125R, D143R, R148D, L155R, R160D, S164R, S168R, Q181R, P192R, K195D, or H197G. Each mutant protein having a single amino acid residue substitution as described above was transiently expressed in CHO cells and purified using standard immobilized metal affinity chromatography techniques. […] The plates were then washed 3 times with PBST and the exemplified human IL-4Rα antibody was added to the wells at a final concentration of 1 μg/mL in PBS-casein and incubated for 1 hour at room temperature. The plates were washed 3 times with PBST, the IL-4Rα mutant proteins were serially diluted 5-fold from 1 μg/mL for 3 points. in PBS-casein and added to the plate at 50 μL/well and incubated for 1 hour at room temperature. The plates were washed 3 times with PBST and a 1000-fold dilution of anti-histidine tag antibody HRP conjugate (R&D Systems, Cat. #MAB050H) in PBS-casein was added and incubated for 45 minutes at room temperature. The plates were washed 3 times, TMB substrate (Pierce, Cat. #34028) was added per manufacturer instructions, the reaction was quenched with H₂SO₄, and absorbance was read at 450 nm on an ELISA plate reader.

[2] = target: T2, hexahistidine tagged human IL-4Rα ECD L42G (human, UniProt P24394 26-232); test: as above
T2 construct: not shown: hexahistidine tag
Description: as §1

[3] = target: T3, hexahistidine tagged human IL-4Rα ECD Q181R (human, UniProt P24394 26-232); test: as above
T3 construct: not shown: hexahistidine tag
Description: as §1

[4] = target: T4, hexahistidine tagged human IL-4Rα ECD F41A (human, UniProt P24394 26-232); test: as above
T4 construct: not shown: hexahistidine tag
Description: as §1

[5] = target: T5, human IL-4Rα on cells (human PBMC B cells and CD4+ T cells, Daudi cells, HEK-Blue IL-4/IL-13 cells, myeloid … (human, UniProt P24394 26-825)); test: flow cytometry on human PBMCs, CD4-positive T cells, Alexa Fluor 647 labelled antibody, percent IL-4Rα positive cells
T5 sequence: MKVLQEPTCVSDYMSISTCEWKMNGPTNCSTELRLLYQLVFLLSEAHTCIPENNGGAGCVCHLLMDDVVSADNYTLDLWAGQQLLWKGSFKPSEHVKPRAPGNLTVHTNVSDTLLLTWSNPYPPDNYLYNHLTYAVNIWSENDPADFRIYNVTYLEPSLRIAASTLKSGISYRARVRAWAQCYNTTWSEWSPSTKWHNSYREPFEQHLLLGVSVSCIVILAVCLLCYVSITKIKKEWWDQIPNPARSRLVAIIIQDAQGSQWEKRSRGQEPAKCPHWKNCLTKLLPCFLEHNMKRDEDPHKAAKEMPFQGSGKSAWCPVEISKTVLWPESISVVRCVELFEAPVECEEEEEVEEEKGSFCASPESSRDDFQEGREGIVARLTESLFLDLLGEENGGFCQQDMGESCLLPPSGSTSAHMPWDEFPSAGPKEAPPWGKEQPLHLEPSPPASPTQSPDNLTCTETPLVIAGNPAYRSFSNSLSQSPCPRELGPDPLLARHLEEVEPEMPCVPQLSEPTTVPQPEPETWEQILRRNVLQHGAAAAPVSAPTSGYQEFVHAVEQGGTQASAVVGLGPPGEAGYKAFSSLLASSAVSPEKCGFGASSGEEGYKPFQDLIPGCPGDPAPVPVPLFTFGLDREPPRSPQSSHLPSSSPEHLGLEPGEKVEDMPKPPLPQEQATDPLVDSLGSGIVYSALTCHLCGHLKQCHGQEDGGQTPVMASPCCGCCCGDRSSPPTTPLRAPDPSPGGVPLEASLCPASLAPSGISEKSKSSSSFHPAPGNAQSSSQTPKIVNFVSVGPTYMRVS
Method: (§2) Example 3b. Binding to B cells and T cells: Binding of the exemplified anti-human IL-4Rα antibodies to B cells and T cells was tested in a Fluorescence Activated Cell Sorting (FACS) assay. […] Freshly isolated cells PBMCs were resuspended at 2×10⁶ cells/mL and allowed to rest for 15 minutes at room temperature, then plated at 100 μL/well into a round bottom 96-well plate (COSTAR®) and washed with FACS buffer (PBS containing 2% fetal bovine serum from Corning®). Exemplified anti-human IL-4Rα antibodies and the respective control IgG antibodies conjugated to Alexa Fluor® 647 according to manufacturer's protocol (Thermo Fisher Scientific) were added to the wells at 66.67 nM and diluted 4-fold in duplicate. Equivalent volume of 2× antibody cocktail containing: Human TruStain FcX™. FITC anti-human CD3 Antibody, Alexa Fluor® 700 anti-human CD4 Antibody (all from Biolegend®) and CD20 Monoclonal Antibody (2H7), PerCP-Cyanine5.5 (Thermo Fisher Scientific) was then added to the wells. Cells were incubated at 4° C. for 30 minutes, washed twice with FACS buffer and resuspended in a final volume of 100 μL FACS buffer. Viability dye, Sytox™ blue (Thermo Fisher Scientific), was added and the samples were analyzed via a flow cytometer (LSRFortessa™ X-20; BD BIOSCIENCES). Data analysis was performed using FlowJo software and statistical analysis was performed using GraphPad Prism 9. […]

[6] = target: T5, human IL-4Rα on cells (human PBMC B …); test: flow cytometry on human PBMCs, CD20 B cells, Alexa Fluor 647 labelled antibody, percent IL-4Rα positive cells
Method: as §2

[7] = target: T5, human IL-4Rα on cells (human PBMC B …); test: cell-based or functional assay

T1 sequence (P24394 26-232 K47D): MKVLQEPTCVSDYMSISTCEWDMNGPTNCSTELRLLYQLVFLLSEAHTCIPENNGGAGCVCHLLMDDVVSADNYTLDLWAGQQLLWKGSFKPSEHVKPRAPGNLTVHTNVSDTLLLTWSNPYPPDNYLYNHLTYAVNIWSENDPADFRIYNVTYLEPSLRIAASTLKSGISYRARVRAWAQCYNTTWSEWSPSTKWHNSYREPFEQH
T3 sequence (P24394 26-232 Q206R): as the sequence (P24394 26-232 K47D) above, with D22K, Q181R counted along it
T4 sequence (P24394 26-232 F66A): as the sequence (P24394 26-232 K47D) above, with D22K, F41A counted along it

B1: anti-human IL-4Rα antibody Ab1 (antibody, human IgG4 S228P, kappa)
heavy: QVQLVESGGGLVQPGGSLRLSCVASGFTFSHSSMNWVRQAPGKGLEWVSYISRATGAVYYADSVKGRFTISRDNAKNSLYLQMNSLRDEDTAVYYCAREPVFDYWGQGTLVTVSSASTKGPCVFPLAPCSRSTSESTAALGCLVKDYFPEPVTVSWNSGALTSGVHTFPAVLQSSGLYSLSSVVTVPSSSLGTKTYTCNVDHKPSNTKVDKRVESKYGPPCPPCPAPEFLGGPSVFLFPPKPKDTLMISRTPEVTCVVVDVSQEDPEVKFNWYVDGVEVHNAKTKPREEQFNSTYRVVSVLTVLHQDWLNGKEYKCKVSNKGLPSSIEKTISKAKGQPREPQVYTLPPSREEMTKNQVSLTCLVKGFYPSDICVEWESNGQPENNYKTTPPVLDSDGSFFLYSRLTVDKSRWQQGNVFSCSVMHEALHNHYTQKSLSLSLG
light: DIQMTQSPSAMSASVGDRVTITCRASQDISNYLAWFQQKPGKVPTRLIYAASSLQSGVPSRFSGSGSGTEFTLTISSLQPEDFATYYCLQWSSYPRTFGQGTKVEIKRTVAAPSVFIFPPSDEQLKSGTASVVCLLNNFYPREAKVQWKVDNALQSGNSQESVTEQDSKDSTYSLSSTLTLSKADYEKHKVYACEVTHQGLSSPVTKSFNRGEC
notes: human kappa light chain; also called anti-human IL-4Rα Ab1; unconjugated Ab1
[1]
  ELISA (OD450): 0.593 OD450
[2]
  ELISA (OD450): 0.965 OD450
[3]
  ELISA (OD450): 1.17 OD450
[4]
  ELISA (OD450): 1.15 OD450
[5]
  EC50: 26300 pM
[6]
  EC50: 150 pM
[7]
  IL-4 IC50 (nM): inhibition of IL-4 induced SEAP activity in HEK-Blue IL-4R and IL-13R expressing cells: 0.08 nM
  IL-13 IC50 (nM): inhibition of IL-13 induced SEAP activity in HEK-Blue IL-4R and IL-13R expressing cells: 0.67 nM
